Experimental data as given in patent publication US20250313644A1.
Read-outs that look alike come from different tables or passages of the source.

Experiments:
[1] = molecular target: human TL1A (HuTL1A) (human) (UniProt O95150)
[2] = molecular target: FASL (UniProt P48023); experiment: ELISA, coated FASL, Ab 25 nM
[3] = molecular target: human TL1A (HuTL1A) (human) (UniProt O95150); experiment: DLS, antigen and antibody mixed in equal moles
[4] = molecular target: LIGHT (UniProt O43557); experiment: ELISA, coated LIGHT, Ab 0.391 nM
Chain of LIGHT (O43557 74-240 limits assumed): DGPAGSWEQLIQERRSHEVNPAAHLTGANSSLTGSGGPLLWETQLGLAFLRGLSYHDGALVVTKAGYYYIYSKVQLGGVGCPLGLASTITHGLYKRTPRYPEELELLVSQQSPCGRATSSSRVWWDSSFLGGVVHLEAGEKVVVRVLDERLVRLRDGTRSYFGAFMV

[5] = molecular target: T1, LT-α (UniProt P01374); experiment: ELISA, coated LT-α, Ab 0.391 nM
T1 sequence (looked up): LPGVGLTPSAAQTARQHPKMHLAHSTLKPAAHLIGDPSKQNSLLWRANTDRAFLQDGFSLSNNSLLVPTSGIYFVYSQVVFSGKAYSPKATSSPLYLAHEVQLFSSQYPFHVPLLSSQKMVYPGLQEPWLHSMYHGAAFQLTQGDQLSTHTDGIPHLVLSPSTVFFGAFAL

[6] = molecular target: human TL1A (HuTL1A) (human) (UniProt O95150); experiment: competition ELISA: antibody dilution mixed 1:1 with Biotin-TL1A, added to coated DcR3 (1 µg/mL), Streptavidin-HRP, OD450; blocked partner of TL1A: DcR3
[7] = molecular target: TNFα (UniProt P01375); experiment: ELISA, coated TNF-α, Ab 6.25 nM
Chain of TNFα (P01375 77-233 limits assumed): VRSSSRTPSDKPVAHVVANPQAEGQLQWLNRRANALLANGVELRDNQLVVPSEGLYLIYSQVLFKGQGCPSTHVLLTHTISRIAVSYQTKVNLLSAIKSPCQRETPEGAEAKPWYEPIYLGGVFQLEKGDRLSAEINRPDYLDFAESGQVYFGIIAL

[8] = molecular target: FASL (UniProt P48023); experiment: ELISA, coated FASL, Ab 6.25 nM
[9] = molecular target: FASL (UniProt P48023); experiment: ELISA, coated FASL, Ab 0.000 nM (blank)
[10] = molecular target: FASL (UniProt P48023); experiment: ELISA, coated FASL, Ab 100 nM
[11] = molecular target: human TL1A (HuTL1A) (human) (UniProt O95150); remark: listed apart in the source
[12] = molecular target: LIGHT (UniProt O43557); experiment: ELISA, coated LIGHT, Ab 1.563 nM
[13] = molecular target: TNFα (UniProt P01375); experiment: ELISA, coated TNF-α, Ab 25 nM
[14] = molecular target: FASL (UniProt P48023); experiment: ELISA, coated FASL, Ab 1.563 nM
[15] = molecular target: TNFα (UniProt P01375); experiment: ELISA, coated TNF-α, Ab 1.563 nM
[16] = molecular target: human TL1A (HuTL1A) (human) (UniProt O95150); experiment: ELISA: biotin-HuTL1A on streptavidin plate, antibody diluted at pH 5.8, HRP-anti-human Fc, OD450
[17] = molecular target: FASL (UniProt P48023); experiment: ELISA, coated FASL, Ab 0.391 nM
[18] = molecular target: human TL1A (HuTL1A) (human) (UniProt O95150); experiment: competition ELISA: antibody dilution mixed 1:1 with Biotin-TL1A, added to coated DcR3 (1 µg/mL), Streptavidin-HRP, OD450; blocked partner of TL1A: DcR3; remark: listed apart in the source
[19] = molecular target: T1, LT-α; experiment: ELISA, coated LT-α, Ab 25 nM
[20] = molecular target: LIGHT (UniProt O43557); experiment: ELISA, coated LIGHT, Ab 100 nM
[21] = molecular target: LIGHT (UniProt O43557); experiment: ELISA, coated LIGHT, Ab 6.25 nM
[22] = molecular target: T1, LT-α; experiment: ELISA, coated LT-α, Ab 1.563 nM
[23] = molecular target: T1, LT-α; experiment: ELISA, coated LT-α, Ab 6.25 nM
[24] = molecular target: LIGHT (UniProt O43557); experiment: ELISA, coated LIGHT, Ab 0.000 nM (blank)
[25] = molecular target: TNFα (UniProt P01375); experiment: ELISA, coated TNF-α, Ab 0.000 nM (blank)
[26] = molecular target: T1, LT-α; experiment: ELISA, coated LT-α, Ab 0.000 nM (blank)
[27] = molecular target: TNFα (UniProt P01375); experiment: ELISA, coated TNF-α, Ab 0.391 nM
[28] = molecular target: T1, LT-α; experiment: ELISA, coated LT-α, Ab 100 nM
[29] = molecular target: LIGHT (UniProt O43557); experiment: ELISA, coated LIGHT, Ab 25 nM
[30] = molecular target: human TL1A (HuTL1A) (human) (UniProt O95150); experiment: ELISA: biotin-HuTL1A on streptavidin plate, antibody diluted at pH 7.4, HRP-anti-human Fc, OD450
[31] = molecular target: TNFα (UniProt P01375); experiment: ELISA, coated TNF-α, Ab 100 nM

Chain of human TL1A (HuTL1A) (human) (O95150 57-251 limits assumed): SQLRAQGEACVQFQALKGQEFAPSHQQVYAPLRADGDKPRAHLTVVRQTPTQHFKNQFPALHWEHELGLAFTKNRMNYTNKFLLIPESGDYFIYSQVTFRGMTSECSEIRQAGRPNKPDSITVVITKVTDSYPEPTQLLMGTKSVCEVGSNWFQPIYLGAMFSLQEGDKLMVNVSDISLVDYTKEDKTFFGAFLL
Chain of FASL (P48023 134-281 limits assumed): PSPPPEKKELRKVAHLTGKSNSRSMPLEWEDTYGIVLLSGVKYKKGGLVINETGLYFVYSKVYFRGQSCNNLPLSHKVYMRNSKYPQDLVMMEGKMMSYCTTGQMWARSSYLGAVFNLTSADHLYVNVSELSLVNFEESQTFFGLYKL

B1: BM2 antibody (Merck/Prometheus TL1A monoclonal antibody PRA023) (antibody, INN chains, looked up, V domains shown)
VH: QVQLVQSGAEVKKPGASVKVSCKASGFDIQDTYMHWVKQRPGQGLEWMGRIDPASGHTKYDPKFQVRVTITRDTSTSTVYLELSSLRSEDTAVYYCARSGGLPDVWGQGTTVTVSS
VL: EIVLTQSPGTLSLSPGERATLSCRASSSVSYMYWYQQKPGQAPRPLIYATSNLASGIPDRFSGSGSGTDFTLTISRLEPEDFAVYYCQQWEGNPRTFGGGTKLEIK
- IC50 (read off the curve); IFN-γ of human T cells with IL-12, IL-18 and exogenous human TL1A [1]: 1 nM
- OD450 nm [2]: 0.0643
- Ave Z-dia (nm) of the antigen-antibody complex [3]: 33.1 nm
- OD450 nm [4]: 0.0643
- OD450 nm [5]: 0.0713
- IC50 (read off the curve) [6]: 30 nM
- OD450 nm [7]: 0.0514
- OD450 nm [8]: 0.0533
- OD450 nm [9]: 0.0549
- OD450 nm [10]: 0.0828
- IC50 (read off the curve); SEAP reporter in HEK293T/DR3-NFκB cells with soluble TL1A, OD655 [11]: 4 nM
- OD450 nm [12]: 0.0741
- OD450 nm [13]: 0.0577
- OD450 nm [14]: 0.0522
- OD450 nm [15]: 0.0517
- EC50 (read off the curve) [16]: 0.2 nM
- OD450 nm [17]: 0.0511
- IC50 (read off the curve) [18]: 7 µg/mL
- OD450 nm [19]: 0.0659
- OD450 nm [20]: 0.0864
- OD450 nm [21]: 0.0719
- OD450 nm [22]: 0.0701
- OD450 nm [23]: 0.0646
- OD450 nm [24]: 0.0588
- OD450 nm [25]: 0.0612
- OD450 nm [26]: 0.0803
- OD450 nm [27]: 0.0522
- OD450 nm [28]: 0.0701
- OD450 nm [29]: 0.076
- EC50 (read off the curve) [30]: 0.2 nM
- OD450 nm [31]: 0.0757
